Values of other authors as cited in paper PMC6321638.

Target: ALG-2 (Homo sapiens) (UniProt O75340)
Assay: SPR

Sequence of ALG-2 (Homo sapiens) (O75340 2-191): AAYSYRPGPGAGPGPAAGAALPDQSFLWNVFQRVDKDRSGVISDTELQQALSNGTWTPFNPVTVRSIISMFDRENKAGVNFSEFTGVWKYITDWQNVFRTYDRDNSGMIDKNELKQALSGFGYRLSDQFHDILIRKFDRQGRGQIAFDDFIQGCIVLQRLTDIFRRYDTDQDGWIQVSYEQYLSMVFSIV

Kd: 200 nM
Substance: ALIX peptide
